The target of data set [1] is T1, SegA (Saccharolobus solfataricus, UniProt Q981B3).
T1 sequence (Q981B3 1-220): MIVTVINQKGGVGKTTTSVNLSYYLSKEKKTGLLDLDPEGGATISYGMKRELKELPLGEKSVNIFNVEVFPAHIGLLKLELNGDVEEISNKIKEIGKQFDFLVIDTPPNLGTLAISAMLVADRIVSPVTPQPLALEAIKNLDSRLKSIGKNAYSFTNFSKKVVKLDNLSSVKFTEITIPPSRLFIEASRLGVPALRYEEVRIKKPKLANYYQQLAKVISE
The data set is described as follows: X-ray crystal structure. In kind it is binding. Conditions: nucleotide pocket.

For data set [2], the target named is SegA (Sulfolobus solfataricus). The data set is described as follows: SEC.
Data set [3] addresses SegA (Sulfolobus solfataricus).
Data set [4] deals with SegB (Sulfolobus solfataricus). As to the kind of experiment: SEC. On the technique in general: Size exclusion chromatography separates by hydrodynamic size, large species first.
For data set [5], the target named is T2, SegBΔ33 (Sulfolobus solfataricus, UniProt Q981B2 34-109, del1-33).
T2 sequence: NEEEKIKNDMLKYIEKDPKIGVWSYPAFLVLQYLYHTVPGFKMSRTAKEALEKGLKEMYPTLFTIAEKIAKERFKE
The data set is described as follows: crystal structure.

Data set [6] deals with T3, SegA (Sulfolobus solfataricus, UniProt Q981B3 1-220).
T3 sequence: T1 sequence (Q981B3 1-220)
As to the kind of experiment: fluorescence polarization.

The target in data set [7] is T3, SegA. As to the kind of experiment: fluorescence polarization. This is another data set of the same source. A general note: In fluorescence polarisation assays a small probe gives low polarisation when free and higher when bound to something large.
Data set [8] concerns the target T3, SegA. The data set is described as follows: fluorescence polarization. The source holds these as a separate data set.
For data set [9], the target named is T2, SegBΔ33. The data set is described as follows: fluorescence polarization.
The next data set deals with T4, SegB (Sulfolobus solfataricus, UniProt Q981B2 1-109).
T4 sequence: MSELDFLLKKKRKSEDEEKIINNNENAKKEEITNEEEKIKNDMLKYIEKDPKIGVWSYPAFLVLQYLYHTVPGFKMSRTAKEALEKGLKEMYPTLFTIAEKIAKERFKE
The data set is described as follows: fluorescence polarization.

The target of another data set is T5, SegA-K14Q (Sulfolobus solfataricus, UniProt Q981B3 1-220, K14Q).
T5 sequence: T1 sequence (Q981B3 1-220) with K14Q
As to the kind of experiment: fluorescence polarization.

Another data set concerns the target T6, SegA-G10V (Sulfolobus solfataricus, UniProt Q981B3 1-220, G10V).
T6 sequence: T1 sequence (Q981B3 1-220) with G10V
The data set is described as follows: fluorescence polarization.

The target in another data set is T7, SegA-Q131A (Sulfolobus solfataricus, UniProt Q981B3 1-220, Q131A).
T7 sequence: T1 sequence (Q981B3 1-220) with Q131A
As to the kind of experiment: fluorescence polarization.

Another data set addresses T8, SegA-Q131A/F158A (Sulfolobus solfataricus, UniProt Q981B3 1-220, Q131A;F158A).
T8 sequence: T1 sequence (Q981B3 1-220) with Q131A, F158A
The data set is described as follows: fluorescence polarization.

Substitutions are numbered along the chain they refer to. Where two headings read alike, the source gives them in different places.

On to `Nc1ncnc2c1ncn2[C@@H]1O[C@H](COP(=O)(O)OP(=O)(O)NP(=O)(O)O)[C@@H](O)[C@H]1O` [AMPPNP, adenosine 5′-(β,γ-imido)triphosphate], for which the X-ray crystal structure result on SegA [1] is on record as “We observed AMPPNP inside the nucleotide binding pocket”.
As usually defined, the stoichiometry N is the number of molecules, sites or subunits per partner or assembly. The molecule SegA (enzyme) gave a stoichiometry N in [2] of 2.
In data set [3], SegB (natural protein) displayed an increase of SegA ATPase activity upon addition of both SegB and S1 DNA of 1000 fold. In data set [4], this molecule registered a stoichiometry N of 2.

B1: 21-bp S1 DNA (dsDNA)
DNA 1: ACGTAGAAGAGTCTAGACTGA
DNA 2: CAGTCTAGACTCTTCTACGTA
As for B1, the binding result with SegBΔ33 [5] is “binds”.

B2: 24-bp nsDNA (dsDNA)
DNA 1: AGGGTGTTCCACGTGAAACAGGGA
DNA 2: TCCCTGTTTCACGTGGAACACCCT
The term Kd denotes a measure of binding affinity in units of concentration. Lower therefore signals tighter binding. Turning to B2, the Kd was found to be 450 nM with SegA [6], 240 nM with SegA [7] and 710 nM in the data set with SegA [8].

B3: 23-bp S1 DNA (dsDNA)
DNA 1: TACGTAGAAGAGTCTAGACTGAC
DNA 2: TCAGTCTAGACTCTTCTACGTAG
B3: the Kd with SegBΔ33 [9] came out at 280 nM; with SegB, 180 nM. The binding result with SegA-K14Q is reported as “binds”; with SegA-G10V, “binds”; with SegA-Q131A, “no binding”; with SegA-Q131A/F158A, “no binding”.

The values above are taken from PMC8682754 (Nucleic Acids Research, 2021).
